Data published in US20240301052A1 (LANOVA MEDICINES DEVELOPMENT, published 2024).
Changes are numbered by the printed parent chain. Read-outs that look alike come from different tables or passages of the source. Each block holds one binder with its values, some of them ahead of it.

Experiments:
Rhesus SLC34A2 [1] = target: T1, Rhesus SLC34A2 (Rhesus, UniProt F7HDA3 1-690); test: FACS, HEK293/Rhesus SLC34A2 cells
T1 construct: whole, on cells
T1 sequence: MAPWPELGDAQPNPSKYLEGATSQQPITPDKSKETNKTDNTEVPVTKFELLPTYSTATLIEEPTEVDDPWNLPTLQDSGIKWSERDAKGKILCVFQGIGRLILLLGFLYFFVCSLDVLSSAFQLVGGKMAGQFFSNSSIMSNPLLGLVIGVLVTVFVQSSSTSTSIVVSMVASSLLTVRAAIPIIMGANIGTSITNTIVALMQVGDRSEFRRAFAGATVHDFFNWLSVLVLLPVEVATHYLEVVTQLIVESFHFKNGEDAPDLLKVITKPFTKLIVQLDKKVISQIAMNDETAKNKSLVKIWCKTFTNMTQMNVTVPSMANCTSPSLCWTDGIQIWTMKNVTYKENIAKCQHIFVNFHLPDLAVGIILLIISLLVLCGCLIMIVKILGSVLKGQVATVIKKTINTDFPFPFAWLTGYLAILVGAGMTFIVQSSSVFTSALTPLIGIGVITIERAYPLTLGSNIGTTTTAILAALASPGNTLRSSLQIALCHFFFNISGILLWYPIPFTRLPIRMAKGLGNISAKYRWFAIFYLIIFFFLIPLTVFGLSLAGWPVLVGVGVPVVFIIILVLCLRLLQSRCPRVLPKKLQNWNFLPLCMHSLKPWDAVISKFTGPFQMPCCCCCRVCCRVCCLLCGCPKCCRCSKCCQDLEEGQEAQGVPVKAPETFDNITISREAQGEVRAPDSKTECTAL

human SLC34A2 [2] = target: T2, human SLC34A2 (human, UniProt O95436 1-690); test: cell-based or functional assay
T2 sequence (looked up): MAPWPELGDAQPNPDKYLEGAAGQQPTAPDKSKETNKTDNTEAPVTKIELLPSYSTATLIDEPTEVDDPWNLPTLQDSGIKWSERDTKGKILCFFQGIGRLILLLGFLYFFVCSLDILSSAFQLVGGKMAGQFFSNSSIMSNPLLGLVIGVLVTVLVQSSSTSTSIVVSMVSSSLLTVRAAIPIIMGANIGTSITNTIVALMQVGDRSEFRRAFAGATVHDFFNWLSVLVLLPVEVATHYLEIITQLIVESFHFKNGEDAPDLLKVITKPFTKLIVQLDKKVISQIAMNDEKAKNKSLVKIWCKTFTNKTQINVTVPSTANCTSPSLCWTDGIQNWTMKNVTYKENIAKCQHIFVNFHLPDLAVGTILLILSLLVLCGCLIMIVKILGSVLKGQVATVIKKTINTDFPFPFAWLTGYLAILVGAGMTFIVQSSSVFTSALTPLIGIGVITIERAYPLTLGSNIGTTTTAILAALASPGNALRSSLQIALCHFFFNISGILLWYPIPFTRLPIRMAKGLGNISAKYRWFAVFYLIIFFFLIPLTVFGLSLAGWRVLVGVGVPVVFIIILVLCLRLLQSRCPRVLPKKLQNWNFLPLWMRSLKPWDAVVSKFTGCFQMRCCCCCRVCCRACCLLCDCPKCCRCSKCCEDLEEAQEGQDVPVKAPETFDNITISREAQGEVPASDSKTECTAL

human SLC34A2 [3] = target: T2, human SLC34A2; test: FACS, OVCAR3 cells
Procedure: (§1) In another testing, cell based binding of hu Abs on human SLC34A2 expressing cells were assessed using flow cytometry. Briefly, the HEK293/H_SLC34A2, OVCAR3 and RMG-1 cells were incubated with hu Abs. After incubation at 4° C. for 60 minutes, the cells were washed with FACS buffer twice, then stained with fluorescent conjugated secondary antibody at 4° C. for 30 minutes. After that the cells were washed twice and analyzed by flow cytometry.

human SLC34A2 [4] = target: T2, human SLC34A2; test: FACS, OVCAR3 cells; remark: listed apart in the source
human SLC34A2 [5] = target: T2, human SLC34A2; test: FACS, HEK293/human SLC34A2 cells
Procedure: as §1

human SLC34A2 [6] = target: T2, human SLC34A2; test: FACS, RMG-1 cells
Procedure: as §1

human SLC34A2 [7] = target: T2, human SLC34A2; test: FACS, OVCAR3 cells; remark: listed apart in the source
Procedure: The binding of these humanized antibodies to OVCAR3 cells was evaluated as described above, and the results are shown in FIG. 12A-D and Tables 16A-D.

human SLC34A2 [8] = target: T2, human SLC34A2; test: FACS, HEK293/human SLC34A2 cells; remark: listed apart in the source
Procedure: The PTM-derisked VH chains were first tested for their impact on target binding. Cell based binding of PTM Abs on human SLC34A2 expressing cells were assessed using flow cytometry. Briefly, the HEK293/H_SLC34A2 cells were incubated with PTM Abs (from 200 nM, 4 folds dilution, 8 points). After incubation at 4° C. for 60 minutes, the cells were washed with FACS buffer twice, then stained with fluorescent conjugated secondary antibody at 4° C. for 30 minutes. After that the cells were washed twice and analyzed by flow cytometry.

Rhesus SLC34A2 [9] = target: T1, Rhesus SLC34A2; test: FACS, HEK293/Rhesus SLC34A2 cells; remark: listed apart in the source
human SLC34A2 [10] = target: T2, human SLC34A2; test: FACS, OVCAR3 cells; remark: listed apart in the source
Outline: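 Chimeric hIgG1 antibodies titrated from 200 nM (4-fold, 8 points) on OVCAR3 cells or HEK293 cells expressing human SLC34A2, 60 min at 4° C. Bound antibody detected with fluorescent secondary antibody (30 min, 4° C) and measured by flow cytometry.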

Cynomolgus SLC34A2 = target: T3, Cynomolgus SLC34A2 (Cynomolgus, UniProt A0A2K5UHY1 1-690); test: FACS, cells expressing Cynomolgus SLC34A2
T3 construct: whole, on cells; also called Cyno SLC34A2
T3 sequence: T1 sequence with P325H, I530V

human SLC34A2 [11] = target: T2, human SLC34A2; test: cell-based or functional assay; remark: listed apart in the source
human SLC34A2 [12] = target: T2, human SLC34A2; test: FACS, RMG-1 cells; remark: listed apart in the source
Procedure: Based on the foregoing cell-based binding results, some of the chimeric antibodies were selected for further cell based binding on human SLC34A2 expressing cells using flow cytometry. RMG-1 cells were incubated with the selected chimeric antibodies (from 200 nM, 4 folds dilution, 8 points). After incubation at 4° C. for 60 minutes, the cells were washed with FACS buffer twice, then stained with fluorescent conjugated secondary antibody at 4° C. for 30 minutes. Afterwards the cells were washed twice and analyzed by flow cytometry.

Rhesus SLC34A2 [13] = target: T1, Rhesus SLC34A2; test: FACS, HEK293/Rhesus SLC34A2 cells; remark: listed apart in the source
Procedure: (§2) Briefly, the Rhesus SLC34A2 expressing HEK293 engineering cells (HEK293/Rhesus_SLC34A2) were incubated with chimeric Abs (from 200 nM, 4 folds dilution, 8 points). After incubation at 4° C. for 60 minutes, the cells were washed with FACS buffer twice, then stained with fluorescent conjugated secondary antibody at 4° C. for 30 minutes. After that the cells were washed twice and analyzed by flow cytometry.

human SLC34A2 [14] = target: T2, human SLC34A2; test: FACS, HEK293/human SLC34A2 cells; remark: listed apart in the source
Procedure: as §2, with “OVCAR3 cells or HEK293 cells expressing human” for “the Rhesus”, “SLC34A2” for “SLC34A2 expressing HEK293 engineering cells (HEK293/Rhesus_SLC34A2)”, “antibodies” for “Abs”

human SLC34A2 [15] = target: T2, human SLC34A2; test: cell-based or functional assay; remark: listed apart in the source
human SLC34A2 [16] = target: T2, human SLC34A2; test: FACS, OVCAR3 cells; remark: listed apart in the source

EC50 (Rhesus SLC34A2 [1]): 0.8 nM
Top (MFI) (Rhesus SLC34A2 [1]): 17000 MFI
ADCC reporter EC50 (human SLC34A2 [2]): 2.52 nM
ADCC reporter Top (MFI) (human SLC34A2 [2]): 126000 MFI
EC50 (human SLC34A2 [3]): 0.37 nM
EC50 (human SLC34A2 [4]): 1.5 nM
Top (MFI) (human SLC34A2 [4]): 70400 MFI
EC50 (human SLC34A2 [5]): 1.18 nM
Top (human SLC34A2 [5]): 35700 MFI
EC50 (human SLC34A2 [6]): 1.09 nM
Top (human SLC34A2 [6]): 11100 MFI
EC50 (human SLC34A2 [7]): 0.68 nM
Top (MFI) (human SLC34A2 [7]): 28700 MFI
EC50 (human SLC34A2 [8]): 0.89 nM
Top (MFI) (human SLC34A2 [8]): 31700 MFI
EC50 (Rhesus SLC34A2 [9]): 2 nM
Top (MFI) (Rhesus SLC34A2 [9]): 47400 MFI
B1: 30H9B8F9 VH_P1/VL hIgG1 (antibody, V domains shown)
VH: QVQLQQPGAELVKPGASVKMSCKTSGYTFTTNNMHWVKQTPGQGLEWIGAIYPGSGATAYNQKFKGKATLTADKSSSTAYMQLSSLTSEASAVYYCARGMYGHGAMDYWGQGTSVIVSS
VL: DIVMTQSHKFMSRSVGDRVRITCKASQDVGTAVAWYQQKPGQSPKLLIYWATTRHSGVPDRFTGSGSGTDFIFTISNVQSEDLADYFCQQYSSNPLTFGAGTKLELK
notes: PTM-derisked chimeric, hIgG1; that P1 is the N=>S version follows from the humanized .p1 chains; also called 30H9B8F9.p1 hIgG1

EC50 (human SLC34A2 [10]): 2.14 nM
Top (MFI) (human SLC34A2 [10]): 43300 MFI
EC50 (Cynomolgus SLC34A2): 2.4 nM
Top (MFI) (Cynomolgus SLC34A2): 4560 MFI
ADCC reporter EC50 (human SLC34A2 [11]): 2.3 nM
ADCC reporter Top (MFI) (human SLC34A2 [11]): 397000 MFI
EC50 (human SLC34A2 [4]): 3.9 nM
Top (MFI) (human SLC34A2 [4]): 72900 MFI
EC50 (human SLC34A2 [12]): 2.77 nM
Top (MFI) (human SLC34A2 [12]): 9920 MFI
EC50 (Rhesus SLC34A2 [13]): 2.19 nM
Top (MFI) (Rhesus SLC34A2 [13]): 18500 MFI
EC50 (human SLC34A2 [14]): 1.52 nM
Top (MFI) (human SLC34A2 [14]): 114000 MFI
EC50 (human SLC34A2 [8]): 1.14 nM
Top (MFI) (human SLC34A2 [8]): 32200 MFI
EC50 (Rhesus SLC34A2 [9]): 3.5 nM
Top (MFI) (Rhesus SLC34A2 [9]): 47400 MFI
B2: xi90G10H7 hIgG1 (antibody, V domains shown)
VH: QVQLQQPGAVLVKPGASVKMSCKASGYTFTSYIIHWVKQTPGQGLEWVGAIYPGNGDASSIQKFKGKATLTVDKSSSTAYMQLSSLTSADSAVYYCARGHYYGSAAWFAYWGQGTLVTVSA
VL: DILLTQSPAILSVSPGERVSFSCRASQNIGTGIHWYQQRTNGSLRLLIKYASESISGIPSRFSGSGSGTDFTLSINSVESEDIADYYCQQSNSWPLTFGAGTKLELK
notes: chimeric, hIgG1
cytotoxicity EC50 (human SLC34A2 [15]): 0.28 nM
cytotoxicity Inhibition % (human SLC34A2 [15]): 103%

EC50 (Rhesus SLC34A2 [1]): 4.2 nM
Top (MFI) (Rhesus SLC34A2 [1]): 9230 MFI
ADCC reporter EC50 (human SLC34A2 [2]): 2.37 nM
ADCC reporter Top (MFI) (human SLC34A2 [2]): 138000 MFI
EC50 (human SLC34A2 [16]): 2.32 nM
Top (MFI) (human SLC34A2 [16]): 38100 MFI
EC50 (human SLC34A2 [3]): 3.96 nM
Top (human SLC34A2 [3]): 22300 MFI
EC50 (human SLC34A2 [5]): 2.32 nM
Top (human SLC34A2 [5]): 38100 MFI
EC50 (human SLC34A2 [6]): 3.91 nM
Top (human SLC34A2 [6]): 9590 MFI
B3: 91C9F1.p1.z10 hIgG1 (antibody, V domains shown)
VH: QVQLVQSGAEVVKPGSSVKVSCKTSGFFFTEYIIHWVRQSPGQGLEWIGGIIPNNDVTNYKQNFRGRATLTADKSTSTAYMELSSLRSEDTAVYYCARWRNAYYSAMDSWGQGTTVTVSS
VL: DIQMTQSPSSLSTSVGDRVTITCTASQDVGTAVAWYQQKPGKSPKLLIYWASTRHTGVPERFSGSGSGTDFTLTISSLQPEDVATYFCQQYRTSPLTFGGGTKVEIK
notes: humanized hIgG1

EC50 (human SLC34A2 [10]): 3.31 nM
Top (MFI) (human SLC34A2 [10]): 42900 MFI
EC50 (Cynomolgus SLC34A2): 2.7 nM
Top (MFI) (Cynomolgus SLC34A2): 3540 MFI
ADCC reporter EC50 (human SLC34A2 [11]): 3 nM
ADCC reporter Top (MFI) (human SLC34A2 [11]): 530000 MFI
EC50 (human SLC34A2 [4]): 5.1 nM
Top (MFI) (human SLC34A2 [4]): 71400 MFI
EC50 (human SLC34A2 [12]): 3.48 nM
Top (MFI) (human SLC34A2 [12]): 9500 MFI
EC50 (Rhesus SLC34A2 [13]): 2.46 nM
Top (MFI) (Rhesus SLC34A2 [13]): 15900 MFI
EC50 (human SLC34A2 [14]): 1.8 nM
Top (MFI) (human SLC34A2 [14]): 115000 MFI
EC50 (human SLC34A2 [8]): 1.48 nM
Top (MFI) (human SLC34A2 [8]): 30400 MFI
EC50 (Rhesus SLC34A2 [9]): 4.9 nM
Top (MFI) (Rhesus SLC34A2 [9]): 46400 MFI
B4: xi55E5B6D12 hIgG1 (antibody, V domains shown)
VH: QVQLQQSGAEVVNSGASVKMSCKASGYTFTTYNMHWVKQTPGQGLEWIGAIYPGNGDTSYNQRFKGKATFTADRSSGTAYMQLSSLPSEDSAVYYCARGGYANGALVDWGQGTLVTVSA
VL: DILMTQSHKFMSTSVGDRVTITCKASQDVGTAVAWYQNKPGQSPKLLIFWTSTRHTGVPDRFTGSGSGTDFTLTISNVQSEDLADYFCQQYSRQPLTFGPGTKLEIK
notes: chimeric, hIgG1
cytotoxicity EC50 (human SLC34A2 [15]): 0.69 nM
cytotoxicity Inhibition % (human SLC34A2 [15]): 96.7%
